Assay results published in the supplement of paper PMC9170038.

Test system: MS2 coat protein
Assay: apparent KD of MS2 coat protein; designed switch direction (-1 OFF switch, 1 ON switch): -1; higher = weaker reporter binding
Summary of the method: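 Designed RNA switches with common flanks were made on Illumina chips by stalled E. coli RNA polymerase. Titration with SNAP-549-labelled MS2 coat protein doubled from 0.7 or 1.5 nM up to 3 µM. Apparent KD is each design's median over clusters after curve-fitting normalised fluorescence.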

[1] = Eterna round: R95, input ligand: FMN 200 uM
[2] = Eterna round: R95, input ligand: microRNA oligo, concentration not stated
[3] = Eterna round: R95, input ligand: none
[4] = input ligand: microRNA oligo, concentration not stated

AGUGCUGGCGCGUCGGUGUUGGUGCAAUAAGCUUGUGAAACAUGAGGAUCACCCAUGUCCUCAUAAGCUCGUCUUAU [salish99_TOv2_r2_085] (puzzle: Sensor v3, turn-off variant 2)
apparent KD of MS2 coat protein [1]: 17.1 nM
apparent KD of MS2 coat protein [2]: 732 nM
apparent KD of MS2 coat protein [3]: 15.8 nM

GGUCAGAUGGUAGGAUAUCCAUAUCGAGUGACCCUUUCAUAACAUGAGGAUCACCCAUGUCGGUGGGAGAAGGGUCGUACGGCG [salish99_ExNG02_R04_020] (Eterna round: R96, puzzle: Exclusion NG 2)
apparent KD of MS2 coat protein (input ligand: FMN 200 uM): 21.3 nM
apparent KD of MS2 coat protein [4]: 16.4 nM
apparent KD of MS2 coat protein (input ligand: none): 23.6 nM

UUUUGACAUGAGGAUCACCCAUGUUAGGAUAUCUUAAGGGAUGGAACAGGGUCGGAACAGAGAAGGAGCGUGGG [EX1 B.26] (Eterna round: R97, puzzle: Exclusion 1)
apparent KD of MS2 coat protein (input ligand: FMN 200 uM): 82.4 nM
apparent KD of MS2 coat protein (input ligand: none): 47.9 nM

GUUUUGUGAGGAUAUCCCUAUCAUCUAGCUGACUAGAUGGUGGAGAAGGCACAUGAGGAUCACCCAUGUGGGAG [Eternabot (L1) Solution 3] (Eterna round: R97, puzzle: Exclusion 4)
apparent KD of MS2 coat protein (input ligand: FMN 200 uM): 111 nM
apparent KD of MS2 coat protein (input ligand: none): 90.1 nM

GGUCGUAGACAGGAUAUGCGGCAAAGAAACAAAGCAGAAGGGUCUACUUGAGGAUCACCCAAGUGGGCGGUUAA [Atrele] (Eterna round: R97, puzzle: Exclusion 6)
apparent KD of MS2 coat protein (input ligand: FMN 200 uM): 153 nM
apparent KD of MS2 coat protein (input ligand: none): 20.4 nM

UCCUCACAUGAGGAUCACCCAUGUCAGGAUAUACCCAUCCAGCGAAAUUAAAGCUGUAGUAGAAGGGACAUGCA [Raertele] (Eterna round: R97, puzzle: Exclusion 1)
apparent KD of MS2 coat protein (input ligand: FMN 200 uM): 40.4 nM
apparent KD of MS2 coat protein (input ligand: none): 20.1 nM

ACAUGUCAUCGAGGAUAUUGGACACAUGAGGAUCACCCAUGUACUCGGAGGCUCUACCAUGAGUUCGAGAAGGCGAUGUACAUG [Ex NG2 #76] (Eterna round: R96, puzzle: Exclusion NG 2)
apparent KD of MS2 coat protein (input ligand: FMN 200 uM): 651 nM
apparent KD of MS2 coat protein [4]: 316 nM
apparent KD of MS2 coat protein (input ligand: none): 365 nM

GCUGGACAAGGAUAUGCAAUCGUGCUUCGGCACGUAAGAUCACAUGAGGAUCACCCAUGUAGAAGGUGUCCAGC [E2/3-C2] (Eterna round: R97, puzzle: Exclusion 2)
apparent KD of MS2 coat protein (input ligand: FMN 200 uM): 62.5 nM
apparent KD of MS2 coat protein (input ligand: none): 24 nM

ACGAUGACCGAAAAGUGUCAACUGACAUGAGGAUCACCCAUGUAGGAUAUGGCUACGAAAAGUAGUCAGAAGGACAUGUCAUCA [Omei Exc(NG) 3 Av6] (Eterna round: R96, puzzle: Exclusion NG 3)
apparent KD of MS2 coat protein (input ligand: FMN 200 uM): 17.6 nM
apparent KD of MS2 coat protein [4]: 10.5 nM
apparent KD of MS2 coat protein (input ligand: none): 15.4 nM

AUUGUAUAGGAAGGAUAUAGAAUAUUAUUUUAACAUGAGGAUCACCCAUGUAACCUUAUGUGUAGCUAGAAGGUCCAUUUAUUA [Title] (Eterna round: R96, puzzle: Exclusion NG 2)
apparent KD of MS2 coat protein [4]: 90.2 nM

AAGCACCAUGUGAGGAUAUGCCACGGAACCGAUGGGCAGAAGGCACAUGAGGAUCACCCAUGUGACCGGUGGAU [Eternabot (Original) Solution 48] (Eterna round: R97, puzzle: Brourd's mod of Exclusion 4)
apparent KD of MS2 coat protein (input ligand: FMN 200 uM): 236 nM
apparent KD of MS2 coat protein (input ligand: none): 44.6 nM

AUAUCAAGCAAGGAUAUGCAAAUGGUUAUUUAUGCAGAAGGUGCAACAUGAGGAUCACCCAUGUUUCUGGGUUU [JR_E6_Sub049] (Eterna round: R96, puzzle: Exclusion 6)
apparent KD of MS2 coat protein (input ligand: FMN 200 uM): 124 nM
apparent KD of MS2 coat protein [4]: 41.7 nM
apparent KD of MS2 coat protein (input ligand: none): 55.7 nM

GUCUAGAGAGGAUAUAUUUACAGUGUACGUCGGAUGAUUGCACUUGAGGAUCACCCAAGUAGAAGGCUCGAGGG [EX2 #32] (Eterna round: R97, puzzle: Exclusion 2)
apparent KD of MS2 coat protein (input ligand: FMN 200 uM): 457 nM
apparent KD of MS2 coat protein (input ligand: none): 303 nM

UCUGGUCGAGGAUAUACAUGAGGAUCACCCAUGUGAUUAGCAGUCCUCGGACUGCAAUGUAGAAGGCGACCAGA [E3/2-A3] (Eterna round: R97, puzzle: Exclusion 3)
apparent KD of MS2 coat protein (input ligand: FMN 200 uM): 894 nM
apparent KD of MS2 coat protein (input ligand: none): 393 nM

CGGUGCUUCUGGAAACAUGAGGAUCACCCAUGUUGAGUUAGCGAGGAUAUCGGUAACACAUGUCACGAGAAGGCGCGAACCAGA [Ex NG3 #34] (Eterna round: R96, puzzle: Exclusion NG 3)
apparent KD of MS2 coat protein (input ligand: FMN 200 uM): 10.4 nM
apparent KD of MS2 coat protein [4]: 13 nM
apparent KD of MS2 coat protein (input ligand: none): 16.7 nM

UCGUAGUCAGGAUAUACAUGAGGAUCACCCAUGUAAAAUUUUAAUUUAAUUUUAAGGUGUAGAAGGGACCAUUU [Ex3 #21] (Eterna round: R97, puzzle: Exclusion 3)
apparent KD of MS2 coat protein (input ligand: FMN 200 uM): 46.7 nM
apparent KD of MS2 coat protein (input ligand: none): 45.8 nM

UGCGAGUAAGGAUAUUCGCGACCGCCCACAAAGGCGGUCGAGAAGAAGGUACUUGAGGAUCACCCAAGUCCUAA [Anremaqu] (Eterna round: R97, puzzle: Exclusion 4)
apparent KD of MS2 coat protein (input ligand: FMN 200 uM): 98.2 nM
apparent KD of MS2 coat protein (input ligand: none): 22 nM

CCCAAGUCAGGAUAUGGAACACAGAGACAUCUCUGUGCCCACCAGAAGGGACAUGAGGAUCACCCAUGUGAUGA [Soesat] (puzzle: Exclusion 4)
apparent KD of MS2 coat protein [2]: 56.6 nM

AAGAAGCGAGGAUAUACAUGAGGAUCACCCAUGUACCUCAUAAAGAAAAGAAAAGAAAGUAGAAGGCGCAAAAG [Default title] (puzzle: Exclusion 3)
apparent KD of MS2 coat protein [1]: 24.2 nM
apparent KD of MS2 coat protein [2]: 23.1 nM
apparent KD of MS2 coat protein [3]: 18.4 nM

AAUACAAGUAAGAUCCUAAACAUGAGGAUCACCCAUGUGCUCGUCUUAUAAAGUACUAUCACGAAAGUGAUAGUACA [Sensor 3, v1 - 66] (puzzle: Sensor v3, turn-off variant 1)
apparent KD of MS2 coat protein [1]: 48.7 nM
apparent KD of MS2 coat protein [2]: 314 nM
apparent KD of MS2 coat protein [3]: 37.5 nM

AGAUAUAGAGGAUAUUUGCGGGAACACAUGAGGAUCACCCAUGUCGAAUAGACGCCCUAUAAAGAAGGCUAGACUG [Eternabot (L2) Solution 86] (Eterna round: R97, puzzle: Exclusion 5)
apparent KD of MS2 coat protein (input ligand: FMN 200 uM): 15.7 nM
apparent KD of MS2 coat protein (input ligand: none): 32.8 nM

ACAUGAGGAUCACCCAUGUCUGGCUGGUCUGCUCCGGCUGUUGAGGAUAUAGUCCGGUGUUCGCGCUAGAAGGCGAGGGCUGGA [Aenatbe mod 42] (Eterna round: R96, puzzle: Exclusion NG 3)
apparent KD of MS2 coat protein (input ligand: FMN 200 uM): 42.5 nM
apparent KD of MS2 coat protein [4]: 21.9 nM
apparent KD of MS2 coat protein (input ligand: none): 48.4 nM

AAGAAACAUGAGGAUCACCCAUGUGAGGAUAUGAAAAAGAAAAGAAAAGAAAGAAGUAUCAGAAGGCACAAAGG [salish99-ex1_r3_023] (puzzle: Exclusion 1)
apparent KD of MS2 coat protein [1]: 57.6 nM
apparent KD of MS2 coat protein [2]: 38.6 nM
apparent KD of MS2 coat protein [3]: 62.8 nM

AGCUGUGGCCGAGGAUAUCUAAUAAUCUCAACCGAAAUAUAAUCGGACAUGAGGAUCACCCAUGUAGAGAAGGCGGUCUCAGCA [Eli eng2 - 067] (Eterna round: R96, puzzle: Exclusion NG 2)
apparent KD of MS2 coat protein [4]: 27.2 nM

AACGUGGCUUAGGAUAUUGCUACGCAAAAGUAACAAGAAGGAGGCACAUGAGGAUCACCCAUGUGAUUCGUUGA [Ineror] (puzzle: Exclusion 6)
apparent KD of MS2 coat protein [2]: 14.8 nM

AUCGUACAGCAAAGCUGUACGAGUACAUGAGGAUCACCCAUGUAGGAUAUGGUACGCAAAGCGUGCUAGAAGGAUAUGAGAUUU [Mat - Exclusion NG 3 - Mod of JL - D101] (Eterna round: R96, puzzle: Exclusion NG 3)
apparent KD of MS2 coat protein (input ligand: FMN 200 uM): 48.5 nM
apparent KD of MS2 coat protein [4]: 30.4 nM
apparent KD of MS2 coat protein (input ligand: none): 48.7 nM

UUUGAUAGCACAGGAUAUUGUCAUUUGAGUUGUCAAGAAGGGUGUACAUGAGGAUCACCCAUGUAAUGGUUGCCUCGCUGACUU [JR_ExcNG1_Sub007] (Eterna round: R96, puzzle: Exclusion NG 1)
apparent KD of MS2 coat protein [4]: 105 nM

CCUCGACAUGAGGAUCACCCAUGUCAGGAUAUUGUGUAUCGGGUUUUUUACGGAAAGGCGAGAAGGGAUGUGUG [LRO-Excl1-10] (puzzle: Exclusion 1)
apparent KD of MS2 coat protein [2]: 15.5 nM

AGUUCUAACACGUUGGUGUUAGUACCAUAAGCUUGUGAUACAUGAGGAUCACCCAUGUCCUCAUAAGCUCGUCUUAU [salish99_TOv2_r3_1001] (Eterna round: R96, puzzle: Sensor v3, turn-off variant 2)
apparent KD of MS2 coat protein (input ligand: FMN 200 uM): 25.2 nM
apparent KD of MS2 coat protein [4]: 563 nM
apparent KD of MS2 coat protein (input ligand: none): 27.3 nM

UGUACGAUGCGUGCUGACAUGCGUCGUGCAGCAGGUGAUACAUGAGGAUCACCCAUGUCCUCAUUUGCUCGUCUAGU [Mat - Sensor v3 - Turn-off var 2 - D24] (puzzle: Sensor v3, turn-off variant 2)
apparent KD of MS2 coat protein [1]: 72.5 nM
apparent KD of MS2 coat protein [2]: 467 nM
apparent KD of MS2 coat protein [3]: 78.4 nM

GCCGAAAGUGUGAGGAUAUACCUAUGGAAACAUAGGUAGAAGGCACAUGAGGAUCACCCAUGUGUCCAAACGGC [Mat - Exclusion 4 - Eli Mod - D23] (Eterna round: R97, puzzle: Brourd's mod of Exclusion 4)
apparent KD of MS2 coat protein (input ligand: FMN 200 uM): 41.5 nM
apparent KD of MS2 coat protein (input ligand: none): 16.5 nM

CCAAGCUUAUUCAUUAACAACAUGAGGAUCACCCAUGUGUAAGCAAUUAUGUUUGGGCUCUUUAGUGCUCGUCUUAU [Sensor-V1 #21] (Eterna round: R97, puzzle: Sensor, turn-off variant 1)
apparent KD of MS2 coat protein (input ligand: FMN 200 uM): 13.7 nM
apparent KD of MS2 coat protein (input ligand: none): 13.9 nM

UGUACUAUGCGUGCUGACAUGCGUAGUGCAGCAGGUGUUACAUGAGGAUCACCCAUGUCCUCAUUUGCUCGUCUUAU [SL-sv3-2.07 JL mod] (puzzle: Sensor v3, turn-off variant 2)
apparent KD of MS2 coat protein [1]: 189 nM
apparent KD of MS2 coat protein [2]: 200 nM
apparent KD of MS2 coat protein [3]: 215 nM

CAGCUGAAUGUGAGGAUAUUACGAGCGAUAGCUCGUGAGAAGGCACAUGAGGAUCACCCAUGUCUCAACAGCUG [BmEx4/2-B4] (Eterna round: R97, puzzle: Brourd's mod of Exclusion 4)
apparent KD of MS2 coat protein (input ligand: FMN 200 uM): 552 nM
apparent KD of MS2 coat protein (input ligand: none): 38.6 nM
